From patent publication US20080213277A1 (Amgen, published 2008)
Substitutions are numbered along the chain they refer to. Bridge positions count the residues as written; N and C are the ends. Ends that are not written are not given here.

T1: recombinant cyno hepcidin (SEQ ID NO: 6) (cynomolgus monkey)
T1 construct: also called rcyno hepcidin; rcynoHepc
T1 peptide: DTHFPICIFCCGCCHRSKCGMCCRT

T2: recombinant mouse hepcidin (SEQ ID NO: 80) (mouse, not fully specified)
T2 construct: also called murine hepcidin
T2 peptide: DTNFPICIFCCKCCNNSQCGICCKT

T3: recombinant human prohepcidin (SEQ ID NO: 102) (human)
T3 chain: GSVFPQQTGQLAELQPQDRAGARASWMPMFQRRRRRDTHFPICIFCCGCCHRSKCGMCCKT

T4: hepcidin 20 (SEQ ID NO: 96) (human)
T4 construct: also called Hepc20; hepc20
T4 peptide: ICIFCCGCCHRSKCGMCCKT

B1: human hepcidin (SEQ ID NO: 9), mature, correctly folded (peptide)
peptide: DTHFPICIFCCGCCHRSKCGMCCKT
modifications: disulfide 10-13, 11-19, 14-22, 7-23; not fully specified
notes: 25-residue mature peptide with four disulfides (C7-C23, C10-C13, C11-C19, C14-C22); Recombinant (E. coli or CHO) or synthetic, by assay; also called rhHepc; shHepc
B2: murine anti-human hepcidin monoclonal antibody 2.7 (antibody, V domains shown)
VH: QIQLVQSGPELKKPGETVKISCKASGYTFTTYGMSWVKQAPGKGLKWMGWINTYSGVPTYADDFKGRFAFSLETSASTAYLQINNLKNEDTATYFCGRDHYYGEVAYWGQGTLVTVSA
VL: DIVLTQSPASLAVSLGQRATISCRASESVDSYGNSFMHWYQQKPGQPPKLLIYRASNLESGIPARFSGSGSRTDFTLTINPVEADDVATYYCHQSNEEYTFGGGTKLEIK
notes: Mouse hybridoma monoclonal; Murine IgG1 was used as its isotypic control; also called Ab2.7; Ab 2.7
B3: murine anti-human hepcidin monoclonal antibody Ab43 (antibody, V domains shown)
VH: QIQLVQSGPELKKPGETVKISCKASGYTFTTYGMSWVKQAPGKGLKWMGWINTYSGVPTYADDFKGRFAFSLETSASTAYLQINNLKNEDTATYFCASLWYYGRAFDYWGQGTTLTVSS
VL: B2 VL with D1N, R54L, I62V, N80D, V87A, H93Q, S95N, E98D, Y99R
notes: Mouse hybridoma monoclonal; also called mAB 43
B4: murine anti-human hepcidin monoclonal antibody 2.41 (antibody, V domains shown)
VH: B2 VH with Y54S, K65M, G97A, H100R
VL: B2 VL with Y32F, Q42L, T89I, H93Q
notes: Mouse hybridoma monoclonal
B5: rat anti-human hepcidin monoclonal antibody R9 (antibody, V domains shown)
VH: QVTLKESGPGILQPSQTLSLTCSFSGFSLSTSGICVSWIRQPSGKGLEWLATICWEDSKGYNPSLKNRLTISKDTSNNQAFLKITSVDTADTAIYYCARPLNYGGYSELELDYWGQGVMVTVSS
VL: DIQMTQSPSLLSASVGDRVTLSCKASQNIYKYLNWYQQKLGEAPKLLIYYTNSLQTGIPSRFSGSGSGTDFTLTISSLQPEDVATYYCYQYNSGPTFGAGTKLELK
notes: Rat hybridoma monoclonal; also called mAb R9

Experiments:
[1] = target: B2; assay: competitive binding assay: unlabeled human hepcidin against 0.25 nM biotinylated hepcidin for Ab2.7; standards in rabbit serum
Protocol: (§1) Hepcidin levels were determined using hepcidin standards of varying concentrations (from 1.4-300 ng/ml) spiked into buffer (5% BSA:I-block), rabbit serum, or pooled human serum. […] 25 μl/well of mixed solution was added to Black half area plates coated with 1-2 μg/mL G×M capture antibody. 25 μL/well of biotinylated hepcidin was added at 0.25 nM. The plate was covered with plate film sealer and incubated at room temperature (25° C.) on a plate shaker at around ≦200 RPM for around 60 minutes. The plate was washed and then 50 μL/well of Poly horseradish peroxidase amplification reagent at 1:2000 was added. The plate was allowed to sit for 30 minutes and was then washed with a plate washer using PBS or KPL buffer 6 times. The plate was patted dry and a luminescent substrate (Femto or Pico) was quickly added. The plate was read with luminometer (ex: Lmax 340) for 1 second using Femto or Pico Substrate. […] (FIG. 30).

[2] = target: B2; assay: competitive binding assay: unlabeled human hepcidin against 0.25 nM biotinylated hepcidin for Ab2.7; standards in 5% BSA:I-block buffer
Protocol: as §1

[3] = target: B1; assay: BIAcore: 1 nM antibody over immobilized rhHepc surface, no competitor (reference)
Protocol: (§2) Recombinant hepcidin was immobilized on a CM5 chip according to manufacturer's instructions at a flow rate 10 μL/min of running buffer (DPBS: Dulbecco's Phosphate Buffer Saline1X, GIBCO 14190, with 0.005% BIAcore surfactant P-20). The carboxylated matrix of the sensor chip was first activated with a 100 μL injection of 1:1 mixture of EDC (75 mg/mL N-ethyl-N-(dimethylamine-propyl)carbodiimide in water, from Biacore) and NHS (11.5 mg/mL N-hydroxysuccinimide in water, from Biacore). […] The excess reactive groups of the sensor chip were deactivated with an injection of 100 μL of ethanolamine (1.0M, from Biacore).
(§3) The binding signal obtained was proportional to the concentration of free antibody in solution at equilibrium.

[4] = target: T1, recombinant cyno hepcidin (SEQ ID NO: 6); assay: KinExA solution equilibrium: fixed antibody + varied rcyno hepcidin, free antibody captured on rcyno hepcidin-coated beads
Text: Reacti-Gel 6× beads (Pierce, Rockford, Ill.) were pre-coated with rcyno hepcidin (SEQ ID NO: 6) and blocked with BSA according to manufacturer's instructions. […] The amount of the bead-bound antibody was quantified by fluorescently (Cy5)-labeled goat anti-murine-IgG (H+L) antibody (Jackson Immuno Research, West Grove, Pa.). The binding signal is proportional to the concentration of free antibody at equilibrium. Dissociation equilibrium constant (KD) was obtained from nonlinear regression of the competition curves using a dual-curve one-site homogeneous binding model (KinExA™ Pro software).

[5] = target: B1; assay: BIAcore solution equilibrium: fixed antibody incubated with varied hepcidin, free antibody read on immobilized hepcidin chip
Protocol: (§4) Preparation of BIAcore chip surfaces: Immobilization of proteins to a BIAcore was performed according to manufacturer's instructions at a flow rate 10 μL/min of running buffer (DPBS: Dulbecco's Phosphate Buffer Saline1X, GIBCO 14190, with 0.005% Biacore surfactant P-20). The carboxylated matrix of the sensor chip was first activated with a 100 μL injection of 1:1 mixture of EDC (75 mg/mL N-ethyl-N-(dimethylamine-propyl)carbodiimide in water, from BIAcore) and NHS (11.5 mg/mL N-hydroxysuccinimide in water, from Biacore). […] The excess reactive groups of the sensor chip were deactivated with an injection of 100 μL of ethanolamine (1.0M, from Biacore).
(§5) Equilibrium binding analysis of antibody/hepcidin interactions on immobilized hepcidin surface: Fixed concentrations of antibody were incubated with various concentrations of hepcidin at room temperature for several hours before run through the immobilized hepcidin surface. After each sample injection, the surfaces were regenerated by injecting 30 μL […] glycine, pH1.5. The binding signal obtained is proportional to the free antibody in solution at equilibrium. The equilibrium dissociation constant (KD) was calculated from nonlinear regression analysis of the competition curves using a one or dual-curve one-site homogeneous binding model (KinExA™ software, Sapidyne Instruments Inc., Boise Id.).

[6] = target: T2, recombinant mouse hepcidin (SEQ ID NO: …); assay: as above
Protocol: as §4, §5

[7] = target: T3, recombinant human prohepcidin (SEQ ID …); assay: sandwich immunoassay: Ab2.7 capture, biotinylated rabbit anti-prohepcidin polyclonal detection; the prohepcidin concentration is varied (buffer curves)
Protocol: In order to reliably assess prohepcidin concentrations, a prohepcidin standard was measured after incubation for 60 minutes at 25° C. in a range of different buffers or sera.

[8] = target: B1; assay: BIAcore: 1 nM antibody preincubated with 10 nM of this hepcidin form in solution, then run over immobilized rhHepc surface; % = free antibody still binding the surface (low % = strong binding to the solution form)
Protocol: as §2, §3

[9] = target: T4, hepcidin 20 (SEQ ID NO: 96); assay: as above
Protocol: as §2, §3

[10] = target: T1, recombinant cyno hepcidin (SEQ ID NO: 6); assay: BIAcore solution equilibrium: fixed rcynoHepc + varied antibody, free rcynoHepc read on immobilized antibody surface
Protocol: The immobilization was performed at a flow rate 10 uL/min of running buffer (DPBS: Dulbecco's Phosphate Buffer Saline1, GIBCO 14190, with 0.005% BIAcore surfactant P-20) according to manufacturer's instructions. The carboxylated matrix of the sensor chip was first activated with a 100 ul injection of 1:1 mixture of EDC (75 mg/mL N-ethyl-N-(dimethylamine-propyl)carbodiimide in water, from BIAcore) and NHS (11.5 mg/mL N-hydroxysuccinimide in water, from BIAcore). 180 ul of antibodies (˜20 ug/ml in 10 mM Na-acetate pH4.0) was injected to immobilize onto the sensor chip at 30 uL/min. The excess reactive groups of the sensor chip were deactivated with an injection of 100 uL of ethanolamine (1.0M, from BIAcore).
The binding signal obtained is proportional to the free rcynoHepc in solution at equilibrium. The equilibrium dissociation constant (KD) was calculated from nonlinear regression analysis of the competition curves using a one-curve one-site homogeneous binding model (KinEx™ software, Sapidyne Instruments Inc., Boise Id.).

[11] = target: T4, hepcidin 20 (SEQ ID NO: 96); assay: BIAcore solution competition: 1 nM antibody preincubated with 10 nM antigen, then immobilized hepcidin surface; '-' = no inhibition by the solution form
Protocol: as §2, §3

Row | Binder | IC50 (read off the curve) [1] | IC50 (read off the curve) [2] | Binding to Hepcidin Surface (%) [3] | Kd [4] | Kd [5] | Kd [6] | EC50 (read off the curve) [7] | Binding to Hepcidin Surface (%) [8] | Binding to Hepcidin Surface (%) [9] | Kd [10] | binding result [11]
1 | B1 | ~7 ng/mL | ~7 ng/mL |  |  |  |  |  |  |  |  | 
2 | B2 |  |  | 100% | ~0.016 nM | 0.11 nM | 40 nM | ~10 ng/mL | 2% | 3% |  | 
3 | B3 |  |  | 100% |  | 0.56 nM | 14 nM |  | 11% | 100% | ~0.1 nM | no binding (tested: 10 nM)
4 | B4 |  |  | 100% | ~0.009 nM | 0.05 nM | 30 nM |  | 0% | 1% |  | 
5 | B5 |  |  | 100% |  | 21 nM | 20 nM |  | 79% | 88% | ~10 nM | 
